In patent US11882829B2, “Fusion proteins and methods for stimulating plant growth, protecting plants, and immobilizing bacillus spores on plants” (Spogen Biotech Inc., priority 2013, dated 2024):

Experiments:
[1] = tested on: corn plants at the V5 stage; test: Foliar application to corn under heat and water stress (Example 38); assay type: in vivo; settings: for Change in plant Height over 2 week stress: foliar spray 1 ml/plant, 32.2° C., watering once per week, compared to water-only control
[2] = tested on: Corn; test: Corn growth after BEMD PhoA4 spores with or without polyphosphate (Example 11); assay type: in vivo; settings: Additive: Polyphosphate 0.5 mg/pot; corn height at two weeks
[3] = tested on: sigma K driven genes in Bacillus cereus family members; settings: microarray data from Bergman et al., 2008; late sporulation, 300 minutes; cited from earlier work

Molecule | Relative Expression (Fold increase in mRNA) [3] [Fold] | other results
c1ccc2snnc2c1 [Benzothiadiazole (BTH), Benzothiadiazole] |  | effect on growth of stressed corn [1]: positive responses; Change in plant Height over 2 week stress [1]: 7.3%
O=C(O)c1ccccc1O [Salicylic Acid] |  | effect on growth of stressed corn [1]: positive responses; Change in plant Height over 2 week stress [1]: 5.8%
Polyphosphate |  | Growth, Comparison to Water [2]: 110.8%
BclA adjacent US Glycosyl transferase promoter 1 (SEQ ID NO: 101): BclA cluster glycosyl transferase operon 1 promoter (nucleic acid, listed as Bacillus thuringiensis, expressed or natural sequence, BclA cluster glycosyl transferase operon 1 promoter) DNA: ATTTTTTACTTAGCAGTAAAACTGATATCAGTTTTACTGCTTTTTCATTTTTAAATTCAATCATTAAATCTTCCTTTTCTACATAGTCATAATGTTGTATGACATTCCGTAGGAGGCACTTATA | 72.25 | 
BclA adjacent DS Glycosyl transferase promoter 2 (SEQ ID NO: 102): BclA cluster glycosyl transferase operon 2 promoter (nucleic acid, listed as Bacillus thuringiensis) DNA: ACATAAATTCACCTCCATAAAGCGTTCATTATATAGTAGATGCAAAACCGAAAGAAAATGACACGGACATTTGAATTATTGAAAAGAAATCTTAAACTACTTGAACAATTTAAAAAAATGGAAAGTTTAGTATATGTATAACATATGATTGATTTGGAAGAGGGTGATTA | 73.96 | 
BclA (SEQ ID NO: 85) (nucleic acid, listed as Bacillus anthracis) DNA: TAATCACCCTCTTCCAAATCAATCATATGTTATACATATACTAAACTTTCCATTTTTTTAAATTGTTCAAGTAGTTTAAGATTTCTTTTCAATAATTCAAATGTCCGTGTCATTTTCTTTCGGTTTTGCATCTACTATATAATGAACGCTTTATGGAGGTGAATTTATG | 77.44 | 
ExsY (SEQ ID NO: 91): ExsY promoter (B. thuringiensis serovar konkukian str. 97-27) (nucleic acid, listed as Bacillus thuringiensis, expressed or natural sequence) DNA: TAATTCCACCTTCCCTTATCCTCTTTCGCCTATTTAAAAAAAGGTCTTGAGATTGTGACCAAATCTCCTCAACTCCAATATCTTATTAATGTAAATACAAACAAGAAGATAAGGAGTGACATTAA | 32.49 | 
YjcA (SEQ ID NO: 93): YjcA promoter (B. thuringiensis serovar kurstaki str. HD73) (nucleic acid, listed as Bacillus thuringiensis, expressed or natural sequence) DNA: TTAATGTCACTCCTTATCTTCTTGTTTGTATTTACATTAATAAGATATTGGAGTTGAGGAGATTTGGTCACAATCTCAAGACCTTTTTTTTAAATAGGCGAAAGAGGATAAGGGAAGGTGGAATTA | 64 | 
YjcB (SEQ ID NO: 94): YjcB promoter (B. thuringiensis serovar kurstaki str. HD73) (nucleic acid, listed as Bacillus thuringiensis, expressed or natural sequence) DNA: ATATATTTTCATAATACGAGAAAAAGCGGAGTTTAAAAGAATGAGGGAACGGAAATAAAGAGTTGTTCATATAGTAAATAGACAGAATTGACAGTAGAGGAGA | 70.56 | 
BxpB/ExsFA (SEQ ID NO: 95): BxpB promoter (B. thuringiensis Al Hakam) (nucleic acid, listed as Bacillus thuringiensis) DNA: AAACTAAATAATGAGCTAAGCATGGATTGGGTGGCAGAATTATCTGCCACCCAATCCATGCTTAACGAGTATTATTATGTAAATTTCTTAAAATTGGGAACTTGTCTAGAACATAGAACCTGTCCTTTTCATTAACTGAAAGTAGAAACAGATAAAGGAGTGAAAAACA | 30.25 | 
InhA (SEQ ID NO: 100): InhA promoter (B. thuringiensis Al Hakam) (nucleic acid, listed as Bacillus thuringiensis) DNA: TATCACATAACTCTTTATTTTTAATATTTCGACATAAAGTGAAACTTTAATCAGTGGGGGCTTTGTTCATCCCCCCACTGATTATTAATTGAACCAAGGGATAAAAAGATAGAGGGTCTGACCAGAAAACTGGAGGGCATGATTCTATAACAAAAAGCTTAATGTTTATAGAATTATGTCTTTTTATATAGGGAGGGTAGTAAACAGAGATTTGGACAAAAATGCACCGATTTATCTGAATTTTAAGTTTTATAAAGGGGAGAAATG | 34.25 | 
CotY (SEQ ID NO: 97) (nucleic acid, listed as Bacillus anthracis) DNA: CGCGCACCACTTCGTCGTACAACAACGCAAGAAGAAGTTGGGGATACAGCAGTATTCTTATTCAGTGATTTAGCACGCGGCGTAACAGGAGAAAACATTCACGTTGATTCAGGGTATCATATCTTAGGATAAATATAATATTAATTTTAAAGGACAATCTCTACATGTTGAGATTGTCCTTTTTATTTGTTCTTAGAAAGAACGATTTTTAACGAAAGTTCTTACCACGTTATGAATATAAGTATAATAGTACACGATTTATTCAGCTACGTA | 79.21 | 
Rhamnose Promoters (SEQ ID NO: 96): Rhamnose promoter (B. thuringiensis Al Hakam) (nucleic acid, listed as Bacillus thuringiensis, expressed or natural sequence) DNA: ATTCACTACAACGGGGATGAGTTTGATGCGGATACATATGAGAAGTACCGGAAAGTGTTTGTAGAACATTACAAAGATATATTATCTCCATCATAAAGGAGAGATGCAAAG | 75.69 | 
BclC (SEQ ID NO: 98) (nucleic acid, listed as Bacillus anthracis) DNA: TGAAGTATCTAGAGCTAATTTACGCAAAGGAATCTCAGGACAACACTTTCGCAACACCTATATTTTAAATTTAATAAAAAAAGAGACTCCGGAGTCAGAAATTATAAAGCTAGCTGGGTTCAAATCAAAAATTTCACTAAAACGATATTATCAATACGCAGAAAATGGAAAAAACGCCTTATCATAAGGCGTTTTTTCCATTTTTTCTTCAAACAAACGATTTTACTATGACCATTTAACTAATTTTTGCATCTACTATGATGAGTTTCATTCACATTCTCATTAGAAAGGAGAGATTTAATG | 14.44 | 
Sigma K (SEQ ID NO: 99) (nucleic acid, listed as Bacillus anthracis) DNA: TATATCATATGTAAAATTAGTTCTTATTCCCACATATCATATAGAATCGCCATATTATACATGCAGAAAACTAAGTATGGTATTATTCTTAAATTGTTTAGCACCTTCTAATATTACAGATAGAATCCGTCATTTTCAACAGTGAACATGGATTTCTTCTGAACACAACTCTTTTTCTTTCCTTATTTCCAAAAAGAAAAGCAGCCCATTTTAAAATACGGCTGCTTGTAATGTACATTA | 64 | 
